Experimental data from IntAct's records for PubMed 19804755.

B1: DNA repair and telomere maintenance protein nbs1 (Schizosaccharomyces pombe (strain ATCC 38366 / 972)), O43070 (parent)
chain: MWIIEAEGDILKGKSRILFPGTYIVGRNVSDDSSHIQVISKSISKRHARFTILTPSEKDYFTGGPCEFEVKDLDTKFGTKVNEKVVGQNGDSYKEKDLKIQLGKCPFTINAYWRSMCIQFDNPEMLSQWASNLNLLGIPTGLRDSDATTHFVMNRQAGSSITVGTMYAFLKKTVIIDDSYLQYLSTVKESVIEDASLMPDALECFKNIIKNNDQFPSSPEDCINSLEGFSCAMLNTSSESHHLLELLGLRISTFMSLGDIDKELISKTDFVVLNNAVYDSEKISFPEGIFCLTIEQLWKIIIERNSRELISKEIERLKYATASNSTPQKIIQPQRHIQKNIVDDLFSVKKPLPCSPKSKRVKTLENLSIMDFVQPKQMFGKEPEGYLSNQSNNGSAQNKKSGDNSEKTKNSLKSSSKKSANTGSGQGKTKVEYVSYNSVDKGNSSPFKPLELNVVGEKKANAEVDSLPSENVQESEDDKAFEENRRLRNLGSVEYIRIMSSEKSNANSRHTSKYYSGRKNFKKFQKKASQKAPLQAFLSLSEHKKTEVFDQDDTDLEPVPRLMSKVESIPAGASSDKSGKSSISKKSSNSFKELSPKTNNDEDDEFNDLKFHF
partner: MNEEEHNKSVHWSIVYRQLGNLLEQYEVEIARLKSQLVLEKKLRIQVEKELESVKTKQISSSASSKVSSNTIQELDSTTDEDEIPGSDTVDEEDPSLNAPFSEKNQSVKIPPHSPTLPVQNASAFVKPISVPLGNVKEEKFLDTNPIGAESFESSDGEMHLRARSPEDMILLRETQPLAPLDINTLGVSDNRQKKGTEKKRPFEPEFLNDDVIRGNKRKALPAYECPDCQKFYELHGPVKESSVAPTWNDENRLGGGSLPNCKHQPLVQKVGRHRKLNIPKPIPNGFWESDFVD

Variants of: B1
Details: with com1_schpo ctp1, O74986

effect of a mutation on the interaction | Variant
decreasing interaction | R27A;K45A
